Read-outs that look alike come from different tables or passages of the source.
Key:
[1] = target: T1, Pho4 (S. cerevisiae, UniProt P07270 1-312); assay: STAMMP
T1 sequence: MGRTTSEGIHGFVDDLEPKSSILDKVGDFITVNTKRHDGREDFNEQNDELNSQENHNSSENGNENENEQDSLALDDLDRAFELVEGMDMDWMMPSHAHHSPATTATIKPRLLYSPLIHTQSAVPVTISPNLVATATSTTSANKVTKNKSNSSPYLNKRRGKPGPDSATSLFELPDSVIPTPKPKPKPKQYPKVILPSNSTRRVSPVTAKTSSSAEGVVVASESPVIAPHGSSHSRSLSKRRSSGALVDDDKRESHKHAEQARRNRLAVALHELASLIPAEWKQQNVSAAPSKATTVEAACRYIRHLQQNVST

[2] = target: T2, MAX (Homo sapiens, UniProt P61244 1-160); assay: MITOMI
T2 sequence (P61244 whole entry): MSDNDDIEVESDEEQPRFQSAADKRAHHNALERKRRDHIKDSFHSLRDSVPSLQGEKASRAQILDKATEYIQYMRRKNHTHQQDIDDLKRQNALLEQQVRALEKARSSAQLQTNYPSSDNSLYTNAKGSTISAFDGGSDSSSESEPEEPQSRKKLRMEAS

[3] = target: T2, MAX; assay: MITOMI; remark: listed apart in the source
[4] = target: T1, Pho4; assay: MITOMI

B1: Motif + random 1 (dsDNA)
DNA 1: CGCACAGTCACTTAACGTCACGTGACCGGGGTATTTCAGGTCCGGCGGTATGAC
DNA 2: GTCATACCGCCGGACCTGAAATACCCCGGTCACGTGACGTTAAGTGACTGTGCG
binding result [1]: binds

B2: GT/AC 15bp (dsDNA)
DNA 1: CGCCCCAGCACTGCCAAGCCGACGTTAAAACGGGTTGCTTCATCAATCTGTGTGTGTGTGTGTGTCACGTGACACACACACACACACATATCGGCACTTGCGCTTGAGTGCATCGAATAGTTCGGTTTATGAGCGTCCGGCGGTATGAC
DNA 2: GTCATACCGCCGGACGCTCATAAACCGAACTATTCGATGCACTCAAGCGCAAGTGCCGATATGTGTGTGTGTGTGTGTCACGTGACACACACACACACACAGATTGATGAAGCAACCCGTTTTAACGTCGGCTTGGCAGTGCTGGGGCG
binding result [2]: binds

B3: ATGC/ATGC 60bp (dsDNA)
DNA 1: CGCATGCATGCATGCATGCATGCATGCATGCATGCATGCATGCATGCATGCATGCATGCATGCGTCACGTGACGCATGCATGCATGCATGCATGCATGCATGCATGCATGCATGCATGCATGCATGCATGCATCGTCCGGCGGTATGAC
DNA 2: GTCATACCGCCGGACGATGCATGCATGCATGCATGCATGCATGCATGCATGCATGCATGCATGCATGCATGCATGCGTCACGTGACGCATGCATGCATGCATGCATGCATGCATGCATGCATGCATGCATGCATGCATGCATGCATGCG
binding result [3]: binds
binding result [4]: binds

Reference: article doi:10.1101/2022.05.24.493321
